Results taken from US20240307489A1 (WESTLAKE UNIVERSITY, published 2024).

Target: T1, LRP1 (low density lipoprotein receptor-related protein 1), endogenous in HEK293T cells (human, UniProt Q07954 20-4544)
T1 construct: Endogenous protein in HEK293T lysates (TAP-MS prey, co-IP); also called endogenous LRP1
Assay: TAP-MS of SFB-tagged Notch pathway proteins in HEK293T cells
Experimental: We picked 12 clones of each bait for the follow-up experiments and confirmed the bait protein expression and localization using Western blotting and immunostaining, respectively. From which, we chose two clones of each bait with the correct subcellular localization and a moderate expression close to that of endogenous one as biological repeat for TAP-MS analysis. HEK293T cells stably expressing C-terminal SFB-fused Notch pathway proteins were selected via culture in medium containing 2 μg/ml puromycin. Protein expression was confirmed via immunostaining and Western blotting as described previously (Wang, W., Li, X., Huang, J., Feng, L., Dolinta, K. G., and Chen, J. (2014). Defining the protein-protein interaction network of the human hippo pathway. Mol Cell Proteomics 13, 119-131.).
For TAP experiments, the membrane-bound and soluble proteins of 2×10⁸ HEK293T cells were extracted using a membrane/soluble protein isolation kit (Beyotime, China) with protease inhibitors at 4° C. The insoluble pellets from the crude lysis step were briefly sonicated and incubated with TurboNuclease for 30 min at 37° C. with occasional vortexing to extract chromatin-bound protein complexes. The lysates were then centrifuged at 14,000 rpm for 30 min at 4° C., and the supernatant was collected as a chromatin fraction. […]

T1 sequence (Q07954 20-4544 limits assumed): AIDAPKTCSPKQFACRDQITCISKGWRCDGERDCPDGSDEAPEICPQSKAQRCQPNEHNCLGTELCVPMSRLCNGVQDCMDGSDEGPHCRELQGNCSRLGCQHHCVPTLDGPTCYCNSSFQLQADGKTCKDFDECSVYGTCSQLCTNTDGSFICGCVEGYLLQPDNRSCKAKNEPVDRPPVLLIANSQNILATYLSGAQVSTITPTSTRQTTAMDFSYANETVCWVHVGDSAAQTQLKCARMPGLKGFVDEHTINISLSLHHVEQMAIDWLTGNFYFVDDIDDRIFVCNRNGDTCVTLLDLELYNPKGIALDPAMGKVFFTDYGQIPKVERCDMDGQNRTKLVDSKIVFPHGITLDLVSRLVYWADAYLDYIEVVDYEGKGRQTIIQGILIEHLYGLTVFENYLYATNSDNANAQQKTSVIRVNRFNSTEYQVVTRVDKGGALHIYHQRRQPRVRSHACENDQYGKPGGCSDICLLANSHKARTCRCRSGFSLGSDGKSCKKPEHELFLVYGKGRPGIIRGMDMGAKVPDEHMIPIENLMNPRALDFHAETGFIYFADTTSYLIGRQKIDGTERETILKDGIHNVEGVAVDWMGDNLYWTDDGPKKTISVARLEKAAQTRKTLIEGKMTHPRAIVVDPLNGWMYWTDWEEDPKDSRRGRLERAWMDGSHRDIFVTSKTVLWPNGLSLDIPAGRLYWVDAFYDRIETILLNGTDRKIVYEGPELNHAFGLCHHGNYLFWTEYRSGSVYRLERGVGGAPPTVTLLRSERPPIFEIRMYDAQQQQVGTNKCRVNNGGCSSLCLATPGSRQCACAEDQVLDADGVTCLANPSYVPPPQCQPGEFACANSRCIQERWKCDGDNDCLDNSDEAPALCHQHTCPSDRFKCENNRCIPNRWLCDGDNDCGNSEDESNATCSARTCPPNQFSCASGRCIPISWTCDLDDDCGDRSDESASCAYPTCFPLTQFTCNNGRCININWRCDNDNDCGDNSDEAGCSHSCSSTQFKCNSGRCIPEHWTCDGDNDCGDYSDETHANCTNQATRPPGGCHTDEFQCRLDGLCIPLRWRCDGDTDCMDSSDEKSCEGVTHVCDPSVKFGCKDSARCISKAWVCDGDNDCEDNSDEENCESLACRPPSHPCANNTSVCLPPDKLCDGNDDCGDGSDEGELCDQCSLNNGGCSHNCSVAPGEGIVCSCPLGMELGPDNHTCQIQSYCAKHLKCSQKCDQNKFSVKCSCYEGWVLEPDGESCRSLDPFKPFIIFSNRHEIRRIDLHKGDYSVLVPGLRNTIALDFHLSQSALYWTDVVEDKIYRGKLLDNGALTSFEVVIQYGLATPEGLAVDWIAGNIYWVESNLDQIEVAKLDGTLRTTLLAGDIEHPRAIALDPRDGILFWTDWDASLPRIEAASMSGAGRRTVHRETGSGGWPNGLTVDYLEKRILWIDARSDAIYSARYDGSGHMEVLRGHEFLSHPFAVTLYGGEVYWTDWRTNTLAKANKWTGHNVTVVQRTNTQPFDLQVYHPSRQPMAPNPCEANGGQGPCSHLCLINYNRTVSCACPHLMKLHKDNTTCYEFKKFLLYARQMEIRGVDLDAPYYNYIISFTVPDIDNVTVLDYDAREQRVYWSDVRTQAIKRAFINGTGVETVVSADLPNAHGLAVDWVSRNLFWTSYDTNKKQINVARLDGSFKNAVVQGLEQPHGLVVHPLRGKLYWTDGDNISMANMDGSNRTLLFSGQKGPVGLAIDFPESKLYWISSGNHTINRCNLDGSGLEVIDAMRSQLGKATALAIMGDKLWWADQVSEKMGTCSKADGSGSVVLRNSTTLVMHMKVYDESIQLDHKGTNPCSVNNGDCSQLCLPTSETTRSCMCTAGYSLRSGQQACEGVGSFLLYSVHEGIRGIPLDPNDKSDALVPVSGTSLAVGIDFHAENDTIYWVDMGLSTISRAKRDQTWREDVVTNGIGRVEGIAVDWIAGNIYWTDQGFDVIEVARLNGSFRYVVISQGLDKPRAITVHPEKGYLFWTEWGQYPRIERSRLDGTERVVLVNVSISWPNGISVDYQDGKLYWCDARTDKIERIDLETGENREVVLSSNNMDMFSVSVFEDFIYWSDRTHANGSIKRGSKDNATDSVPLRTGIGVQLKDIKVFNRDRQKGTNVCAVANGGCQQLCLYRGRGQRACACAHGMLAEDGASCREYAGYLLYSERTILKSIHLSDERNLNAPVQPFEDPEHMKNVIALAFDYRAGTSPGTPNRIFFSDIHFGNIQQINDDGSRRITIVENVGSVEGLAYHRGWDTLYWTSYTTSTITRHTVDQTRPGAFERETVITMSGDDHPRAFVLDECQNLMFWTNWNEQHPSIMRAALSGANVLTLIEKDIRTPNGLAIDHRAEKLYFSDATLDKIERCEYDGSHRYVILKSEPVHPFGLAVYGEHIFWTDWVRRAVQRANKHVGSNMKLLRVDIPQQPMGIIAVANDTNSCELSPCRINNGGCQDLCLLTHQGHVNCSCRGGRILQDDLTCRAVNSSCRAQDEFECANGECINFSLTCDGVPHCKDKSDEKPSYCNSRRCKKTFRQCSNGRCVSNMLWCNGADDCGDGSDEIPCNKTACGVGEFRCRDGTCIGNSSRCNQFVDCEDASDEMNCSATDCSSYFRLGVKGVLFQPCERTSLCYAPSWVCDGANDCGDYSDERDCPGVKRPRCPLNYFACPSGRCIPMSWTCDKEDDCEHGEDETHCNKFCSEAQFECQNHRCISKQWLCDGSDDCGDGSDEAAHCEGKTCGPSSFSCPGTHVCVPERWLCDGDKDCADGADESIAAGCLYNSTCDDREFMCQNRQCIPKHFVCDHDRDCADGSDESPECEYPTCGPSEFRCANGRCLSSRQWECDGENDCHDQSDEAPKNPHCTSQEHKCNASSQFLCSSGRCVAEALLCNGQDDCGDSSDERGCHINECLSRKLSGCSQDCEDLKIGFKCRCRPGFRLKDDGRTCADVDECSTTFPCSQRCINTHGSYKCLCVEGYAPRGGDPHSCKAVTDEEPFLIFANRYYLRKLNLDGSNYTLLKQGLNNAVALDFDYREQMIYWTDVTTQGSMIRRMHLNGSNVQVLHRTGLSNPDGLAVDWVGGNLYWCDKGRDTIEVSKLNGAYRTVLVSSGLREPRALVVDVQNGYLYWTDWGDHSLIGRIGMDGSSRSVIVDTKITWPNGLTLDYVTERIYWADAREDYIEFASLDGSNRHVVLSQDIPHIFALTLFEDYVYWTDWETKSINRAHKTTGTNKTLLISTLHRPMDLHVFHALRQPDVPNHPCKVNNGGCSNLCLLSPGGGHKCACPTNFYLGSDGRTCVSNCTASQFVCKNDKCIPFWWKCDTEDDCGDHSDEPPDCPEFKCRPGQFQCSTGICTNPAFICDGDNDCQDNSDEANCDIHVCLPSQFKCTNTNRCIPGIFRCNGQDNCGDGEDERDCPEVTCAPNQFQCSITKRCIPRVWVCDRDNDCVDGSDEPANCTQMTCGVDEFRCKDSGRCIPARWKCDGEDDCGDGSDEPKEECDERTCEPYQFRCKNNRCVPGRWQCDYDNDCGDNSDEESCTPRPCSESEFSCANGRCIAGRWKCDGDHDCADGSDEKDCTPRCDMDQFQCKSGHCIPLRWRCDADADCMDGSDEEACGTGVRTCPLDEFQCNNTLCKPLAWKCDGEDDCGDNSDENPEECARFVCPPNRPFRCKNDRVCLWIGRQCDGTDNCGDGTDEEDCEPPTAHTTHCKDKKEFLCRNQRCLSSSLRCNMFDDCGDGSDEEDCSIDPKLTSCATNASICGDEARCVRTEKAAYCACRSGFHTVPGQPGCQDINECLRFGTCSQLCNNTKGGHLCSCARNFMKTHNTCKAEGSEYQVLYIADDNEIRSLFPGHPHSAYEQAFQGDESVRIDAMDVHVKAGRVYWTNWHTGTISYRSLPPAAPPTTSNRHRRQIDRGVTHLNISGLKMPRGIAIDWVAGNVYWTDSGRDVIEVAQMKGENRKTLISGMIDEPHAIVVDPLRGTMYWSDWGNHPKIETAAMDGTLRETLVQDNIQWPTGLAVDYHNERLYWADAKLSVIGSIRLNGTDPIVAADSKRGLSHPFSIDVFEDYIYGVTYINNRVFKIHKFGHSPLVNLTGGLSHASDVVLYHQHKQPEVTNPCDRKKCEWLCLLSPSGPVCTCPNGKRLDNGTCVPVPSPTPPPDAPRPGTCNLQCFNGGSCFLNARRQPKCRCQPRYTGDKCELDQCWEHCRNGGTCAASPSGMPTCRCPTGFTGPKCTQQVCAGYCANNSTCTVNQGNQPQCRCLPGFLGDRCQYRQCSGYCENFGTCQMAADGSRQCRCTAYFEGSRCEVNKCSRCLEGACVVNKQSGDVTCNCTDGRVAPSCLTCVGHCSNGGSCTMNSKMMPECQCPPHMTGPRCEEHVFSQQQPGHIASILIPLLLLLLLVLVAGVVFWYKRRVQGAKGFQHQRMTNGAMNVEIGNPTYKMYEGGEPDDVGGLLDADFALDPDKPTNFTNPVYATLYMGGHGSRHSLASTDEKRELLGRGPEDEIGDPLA

- binding result: binds
B1: cSFB-tagged wild-type DLL3 (ligand, human, UniProt Q9NYJ7 27-618, looked up)
chain: AGVFELQIHSFGPGPGPGAPRSPCSARLPCRLFFRVCLKPGLSEEAAESPCALGAALSARGPVYTEQPGAPAPDLPLPDGLLQVPFRDAWPGTFSFIIETWREELGDQIGGPAWSLLARVAGRRRLAAGGPWARDIQRAGAWELRFSYRARCEPPAVGTACTRLCRPRSAPSRCGPGLRPCAPLEDECEAPLVCRAGCSPEHGFCEQPGECRCLEGWTGPLCTVPVSTSSCLSPRGPSSATTGCLVPGPGPCDGNPCANGGSCSETPRSFECTCPRGFYGLRCEVSGVTCADGPCFNGGLCVGGADPDSAYICHCPPGFQGSNCEKRVDRCSLQPCRNGGLCLDLGHALRCRCRAGFAGPRCEHDLDDCAGRACANGGTCVEGGGAHRCSCALGFGGRDCRERADPCAARPCAHGGRCYAHFSGLVCACAPGYMGARCEFPVHPDGASALPAAPPGLRPGDPQRYLLPPALGLLVAAGVAGAALLLVHVRRRGHSQDAGSRLLAGTPEPSVHALPDALNNLRTQEGSGDGPSSSVDWNRPEDVDPQGIYVISAPSIYAREVATPLFPPLHTGRAGQRQHLLFPYPSSILSVK
notes: Expressed in HEK293T cells, pulled down on S beads; also called cSFB-DLL3; C-terminal SFB-fused DLL3; not shown: C-terminal SFB triple tag (S protein tag-2xFLAG tag-SBP tag)
